Peptide text beside a SMILES is read from it. * marks the point of attachment. Palmitoyl = CCCCCCCCCCCCCCCC(=O)*
Tests used:
[1] = Small angle x-ray scattering (SAXS) of PA nanofibers; type: physicochemical
Procedure: Small angle x-ray scattering (SAXS): SAXS characterization of the PA nanofibers was performed at the Advanced Photon Source in the Argonne National Laboratory on beamline 5-ID-D, DuPont-Northwestern-Dow Collaborative Access Team Synchrotron Research Center. Samples were prepared at 5 mM in PBS solution, aged at least 24 hours at 4° C., and analyzed in 1.5 mm quartz capillaries (Charles Supper) at 17 keV with a charged couple device photon detector located 245 cm behind the sample. Scattering intensities were collected using wave vector q range of 0.0024 to 0.40 Å^−1. q represents the scattering vector and is calculated as q=4π sin (θ)/λ, with θ as the scattering angle between the incident beam and detector and […] the X-ray wavelength. The plots of scattering intensity versus q were obtained using NIST software Igor Pro v8. The scattering intensities of PBS were subtracted from the PA samples using the Irena SAS macro, and the resulting plots were fitted using NCNR Analysis macro to a polydisperse core shell cylinder model.

[2] = system: J774.2 murine macrophages; assay: Nitric oxide production of stimulated macrophages; type: cell-based, mouse; settings: 24 hours, LPS and stimulated, 32 μM Ac2-26 or epitope equivalent
Procedure: Macrophage culture and characterization: J774.2 murine macrophages (Sigma-Aldrich) were expanded at 4-9×10^5 cells/mL in growth media consisting of Dulbecco's Modified Eagle's Medium (Sigma-Aldrich) containing 4.5 g/L glucose, 2 mM L-glutamine, 10% v/v FBS, 100 U/m penicillin, and 100 μg/mL streptomycin. Cells were passaged using Accutase™ (StemCell Technologies) and used at passage 6-9 for all experiments. The cells were detached with Accutase™ and gentle scraping, counted, and re-suspended in flow cytometry buffer containing 2% w/v bovine serum albumin (BSA, heat shock fraction free of proteases, globulin, and fatty acids, Sigma-Aldrich) and 0.1% w/v sodium azide (Sigma-Aldrich). To minimize non-specific binding of immunoglobin to Fc receptors, macrophages were incubated with anti-mouse CD16/32 antibody (TrueStain FcX™, Biolegend) at 1 μg/1×10^5 cells for 10 minutes at 4° C. APC anti-mouse CD11b antibody or APC Armenian hamster IgG isotype control antibody (Biolegend) were added at 0.4 μg/1×10^5 cells, FPR2 antibody (Novus Biologics) was added at […], and all samples were incubated for 30 minutes at 4° C. The cells were washed once with flow cytometry buffer by centrifugation at 300×g. FPR2 samples were further treated with goat anti-rabbit Alexa Fluor 488 secondary antibody (Invitrogen) at 2 μg/1×10^5 cells for 20 minutes at 4° C., followed by a wash step. Unstained macrophages served as controls and contained 7AAD viability staining solution (Biolegend) at 0.1 μg/1×10^5. All samples were suspended in 4% paraformaldehyde (Electron Microscopy Sciences) in PBS until analysis. […] All samples were analyzed using Attune NxT Acoustic Focusing Cytometer (Thermo Fisher) with at least 2000 events counted per condition.
Therapeutic effects of ApoA1-Ac2-26 PAs: 10% ROS- and MMP-Ac2-26 PAs, as well as Ac2-26 peptide were added together with 10 μg/mL LPS at 32 μM Ac2-26 to macrophages. […] Concerning the quantification of NO, the reducing solution made of KI in acetic acid and water provides an excess of I− that reacts with nitrite yielding ·NO. […]

Compound | SAXS slope of Guinier regime in the low q region ([1]; 5 mM in PBS) | core radius (polydisperse core-shell cylinder model) ([1]; SAXS fit) | radial shell thickness (polydisperse core-shell cylinder model) ([1]; SAXS fit) | macrophage activation, nitric oxide production relative to the stimulated control [2]
10% MMP-Ac2-26 PA: co-assembly of 10 mol % MMP-Ac2-26 PA, 50 mol % E2 filler PA, and 40% ApoA1 PA (VVAAEEGGGPQGIWGQGKAMVSEFLKQAWFIENEEQEYVQTVK) | −1.8 | 2.1 nm | 2.0 nm | significantly reduced
CCCCCCCCCCCCCCCC(=O)N[C@H](C(=O)N[C@H](C(=O)N[C@@H](C)C(=O)N[C@@H](C)C(=O)N[C@@H](CCC(=O)O)C(=O)N[C@@H](CCC(=O)O)C(=O)NCC(=O)N[C@@H](CC(=O)O)C(=O)N[C@@H](Cc1c[nH]c2ccccc12)C(=O)N[C@@H](Cc1ccccc1)C(=O)N[C@@H](CCCCN)C(=O)N[C@@H](C)C(=O)N[C@@H](Cc1ccccc1)C(=O)N[C@@H](Cc1ccc(O)cc1)C(=O)N[C@@H](CC(=O)O)C(=O)N[C@@H](CCCCN)C(=O)N[C@H](C(=O)N[C@@H](C)C(=O)N[C@@H](CCC(=O)O)C(=O)N[C@@H](CCCCN)C(=O)N[C@@H](Cc1ccccc1)C(=O)N[C@@H](CCCCN)C(=O)N[C@@H](CCC(=O)O)C(=O)N[C@@H](C)C(=O)N[C@@H](Cc1ccccc1)C(N)=O)C(C)C)C(C)C)C(C)C [ApoA1 PA] (Palmitoyl-VVAAEEGDWFKAFYDKVAEKFKEAF-NH2) |  |  |  | did not cause significant decreases in nitric oxide production

From patent US12214076B2, “Drug delivery vehicles for atherosclerosis nanomedicine” (Northwestern University, priority 2019, dated 2025)
